Data taken from patent publication US20250059282A1 (University of Texas, published 2025).
Like-named read-outs stand apart in the source and are kept apart here.

T1: Cyno PD-L2-Fc (cynomolgus, UniProt A0A2K5U5Z4 20-220)
T1 construct: also called cynomolgus PD-L2; not shown: Fc
T1 sequence: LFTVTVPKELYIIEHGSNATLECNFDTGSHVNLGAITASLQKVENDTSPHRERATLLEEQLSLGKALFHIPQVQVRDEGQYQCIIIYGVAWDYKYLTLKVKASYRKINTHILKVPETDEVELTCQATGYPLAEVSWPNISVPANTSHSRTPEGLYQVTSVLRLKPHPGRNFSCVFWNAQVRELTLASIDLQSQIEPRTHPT

T2: Mouse PD-L2-Fc (mouse, UniProt Q9WUL5 20-219, limits assumed)
T2 construct: also called murine PD-L2; not shown: Fc
T2 sequence (looked up): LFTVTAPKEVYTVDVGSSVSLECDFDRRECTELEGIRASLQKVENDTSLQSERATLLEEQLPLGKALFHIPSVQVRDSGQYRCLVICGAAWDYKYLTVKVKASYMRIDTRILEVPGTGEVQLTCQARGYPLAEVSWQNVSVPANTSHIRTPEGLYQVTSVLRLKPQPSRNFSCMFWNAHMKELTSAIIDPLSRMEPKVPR

T3: Human PD-L2-HIS (human, UniProt Q9BQ51 20-220)
T3 construct: also called His-tagged human PD-L2; not shown: His tag
T3 sequence: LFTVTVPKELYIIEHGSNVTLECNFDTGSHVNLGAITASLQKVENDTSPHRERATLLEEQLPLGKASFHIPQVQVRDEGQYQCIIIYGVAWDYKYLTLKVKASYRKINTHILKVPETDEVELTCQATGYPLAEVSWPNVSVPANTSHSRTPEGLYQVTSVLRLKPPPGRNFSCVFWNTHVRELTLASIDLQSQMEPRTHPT

T4: Human PD-L2-Fc (human, UniProt Q9BQ51 20-220)
T4 construct: also called dimeric PD-L2; PD-L2 (dimeric ligand); not shown: human IgG1 Fc constant region
T4 sequence: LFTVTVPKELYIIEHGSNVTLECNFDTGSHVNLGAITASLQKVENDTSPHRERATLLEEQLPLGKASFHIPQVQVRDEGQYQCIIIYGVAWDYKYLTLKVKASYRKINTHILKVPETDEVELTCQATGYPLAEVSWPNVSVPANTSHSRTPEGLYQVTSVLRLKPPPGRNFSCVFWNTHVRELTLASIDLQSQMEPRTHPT

T5: Human b-PD-L2-His (human, UniProt Q9BQ51 20-220, biotinylated (b-); sites not stated)
T5 construct: Antigen of the MSD-SET measurements; also called biotinylated human PD-L2-His; not shown: His tag
T5 sequence: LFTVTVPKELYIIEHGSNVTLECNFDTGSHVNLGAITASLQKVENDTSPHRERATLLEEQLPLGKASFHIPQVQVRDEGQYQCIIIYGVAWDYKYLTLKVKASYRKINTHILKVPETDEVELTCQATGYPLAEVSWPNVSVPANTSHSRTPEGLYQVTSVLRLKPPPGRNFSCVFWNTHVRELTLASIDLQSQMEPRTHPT

B1: BiPDL3-34 (antibody, V domains shown)
VH: QVQLQQWGAGLLKPSETLSLTCAVYGGSLSGYPWSWIRQPPGKGLEWIGETDVSGWTDYNPSLKSRVTISVDTSKNQFSLKLSSVTAADTAVYYCARDGRRMGTPSFDIWGQGTMVTVSS
VL: DIQMTQSPSSVSASVGDRVTITCRASQDISSFLAWYQQKPGKAPKLLIYAASSLQDGVPSRFSGSGSGTDFTLTISSLQPEDFATYYCQKSVYFPPTFGGGTKVEIK
notes: IgG; also called ADI-37468; 37468
B2: BiPDL3-13 Fab (Fab, V domains shown)
VH: QVQLQQWGAGLLKPSETLSLTCAVYGGSLSGYPWSWIRQPPGKGLEWIGETDVSGWTDYNPSLKSRVTISVDTSKNQFSLKLSSVTAADTAVYYCARDGRRMGTPSFDIWGQGTMVTVSS
VL: DIQLTQSPSSVSASVGDRVTITCRASQGISSWLAWYQQKPGKAPKLLIYAASSLQSGVPSRFSGSGSGTDFTLTISSLQPEDFATYYCQQYVYFPPTFGGGTKVEIK
notes: Fab made by papain digestion of the IgG
B3: BiPDL3-24 (antibody, V domains shown)
VH: QVQLQQWGAGLLKPSETLSLTCAVYGGSLSGYPWSWIRQPPGKGLEWIGETDVSGWTDYNPSLKSRVTISVDTSKNQFSLKLSSVTAADTAVYYCARDGRRMGTPSFDIWGQGTMVTVSS
VL: DIQMTQSPSSVSASVGDRVTITCRASQGISNFLAWYQQKPGKAPKLLIYAASSLQSGVPSRFSGSGSGTDFTLTISSLQPEDFATYYCQKAVYFPPTFGGGTKVEIK
notes: IgG; also called ADI-37465; 37465
B4: BiPDL3-44 (antibody, V domains shown)
VH: QVQLQQWGAGLLKPSETLSLTCAVYGGSLSGYPWSWIRQPPGKGLEWIGETDVSGWTDYNPSLKSRVTISVDTSKNQFSLKLSSVTAADTAVYYCARDGRRMGTPSFDIWGQGTMVTVSS
VL: DIQMTQSPSSVSASVGDRVTITCRASQGISTFLAWYQQKPGKAPKLLIYAASALHSGVPSRFSGSGSGTDFTLTISSLQPEDFATYYCQRAVYFPPTFGGGTKVEIK
notes: IgG; also called ADI-37475; 37475
B5: BiPDL4-44 Fab (Fab, V domains shown)
VH: QVQLVESGGGVIQPGRSLRLSCAASGFTFSAYLMHWVRQAPGKGLEWVAAIGYDGMNKYYADSVKGRFTISRDNSKNTLYLQMNSLRAEDTAVYYCARAGIEYSYAYTDYWGQGTLVTVSS
VL: EIVLTQSPGTLSLSPGERATLSCRASHSVVSSYLAWYQQKPGQAPRLLIYGASSREDGIPDRFSGSGSGTDFTLTISRLEPEDFAVYYCVQFGWWPPRTFGGGTKVEIK
notes: as for B2
B6: BiPDL4-24 Fab (Fab, V domains shown)
VH: QVQLVESGGGVVQPGRSLRLSCAASGFTFDEYGMHWVRQAPGKGLEWVAVIGYDGLNKYYADSVKGRFTISRDNSKNTLYLQMNSLRAEDTAVYYCARAGIEYSYAYTDYWGQGTLVTVSS
VL: EIVLTQSPGTLSLSPGERATLSCRASNSVVSSYLAWYQQKPGQAPRLLIYGAASRANGIPDRFSGSGSGTDFTLTISRLEPEDFAVYYCVQFGWWPPRTFGGGTKVEIK
notes: as for B2
B7: BiPDL4-24 (antibody, V domains shown)
VH: QVQLVESGGGVVQPGRSLRLSCAASGFTFDEYGMHWVRQAPGKGLEWVAVIGYDGLNKYYADSVKGRFTISRDNSKNTLYLQMNSLRAEDTAVYYCARAGIEYSYAYTDYWGQGTLVTVSS
VL: EIVLTQSPGTLSLSPGERATLSCRASNSVVSSYLAWYQQKPGQAPRLLIYGAASRANGIPDRFSGSGSGTDFTLTISRLEPEDFAVYYCVQFGWWPPRTFGGGTKVEIK
notes: Fourth generation, IgG

Legend:
Cyno PD-L1-Fc [1] = biological target: T6, Cyno PD-L1-Fc (cynomolgus, UniProt G7PSE7 19-238); assay: ForteBio, IgG, avid
T6 construct: also called cynomolgus PD-L1
T6 sequence (G7PSE7 entry or part of it limits assumed): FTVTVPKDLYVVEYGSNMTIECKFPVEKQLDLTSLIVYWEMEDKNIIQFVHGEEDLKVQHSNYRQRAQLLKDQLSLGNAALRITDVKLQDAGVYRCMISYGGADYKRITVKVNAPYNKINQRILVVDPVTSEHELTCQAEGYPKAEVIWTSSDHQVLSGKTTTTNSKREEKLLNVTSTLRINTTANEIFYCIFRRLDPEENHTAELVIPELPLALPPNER

Cyno PD-L2-Fc [2] = biological target: T1, Cyno PD-L2-Fc; assay: ForteBio, IgG, avid
Mouse PD-L1-Fc [3] = biological target: T7, Mouse PD-L1-Fc (mouse, UniProt Q9EP73 19-239, limits assumed); assay: ForteBio, IgG, avid
T7 construct: also called murine PD-L1; not shown: Fc
T7 sequence (Q9EP73 19-239 limits assumed): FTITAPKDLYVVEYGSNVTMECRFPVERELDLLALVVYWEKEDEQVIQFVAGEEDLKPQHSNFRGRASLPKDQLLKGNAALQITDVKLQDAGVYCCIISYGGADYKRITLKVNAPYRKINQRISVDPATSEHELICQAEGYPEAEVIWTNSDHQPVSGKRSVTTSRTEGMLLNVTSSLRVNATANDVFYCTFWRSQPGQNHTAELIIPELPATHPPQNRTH

Mouse PD-L2-Fc [4] = biological target: T2, Mouse PD-L2-Fc; assay: ForteBio, IgG, avid
Human PD-L1-HIS [5] = biological target: T8, Human PD-L1-HIS (human, UniProt Q9NZQ7 19-238); assay: ForteBio, IgG, monovalent
T8 construct: also called HIS-tagged monovalent PD-L1; His-tagged human PD-L1; not shown: His tag
T8 sequence (Q9NZQ7 19-238 limits assumed): as the sequence (G7PSE7 entry or part of it limits assumed) above, with T33A, S34A, N62S, Q68R, R82Q, L173F, A185T, I192T, L215H counted along it

Human PD-L2-HIS [6] = biological target: T3, Human PD-L2-HIS; assay: ForteBio, IgG, monovalent
Human PD-L2-Fc [7] = biological target: T4, Human PD-L2-Fc; assay: ForteBio Octet, Fab, monovalent
Experimental: (§1) ForteBio KD measurements—ForteBio affinity measurements were performed on an Octet® RED384 generally as previously described (see, e.g., Estep et al., 2013). Briefly, ForteBio affinity measurements were performed by loading IgGs on-line onto AHQ sensors. Sensors were equilibrated off-line in assay buffer for 30 min and then monitored on-line for 60 seconds for baseline establishment. Sensors with loaded IgGs were exposed to 100 nM antigen for 3 minutes, and afterwards were transferred to assay buffer for 3 min for off-rate measurement. For monovalent affinity assessment Fabs were used instead of IgGs. For this assessment the […] Fc fusion antigen was loaded on-line onto the AHQ sensors. Sensors were equilibrated off-line in assay buffer for 30 min and then monitored on-line for 60 seconds for baseline establishment. Sensors with loaded antigen were exposed to 100 nM Fab for 3 minutes, and afterwards they were transferred to assay buffer for 3 min for off-rate measurement. All kinetics were analyzed using the 1:1 binding model.

Human b-PD-L2-His = biological target: T5, Human b-PD-L2-His; assay: MSD-SET, Fab, monovalent
Experimental: Briefly, solution equilibrium titrations (SET) were performed in PBS +0.1% IgG-Free BSA (PBSF) with antigen held constant at 50 pM and incubated with 3- to 5-fold serial dilutions of Fab starting at 20 nM. Antibodies (20 nM in PBS) were coated onto standard bind MSD®-ECL plates overnight at 4° C. or at room temperature for 30 min. Plates were then blocked by BSA for 30 min with shaking at 700 rpm, followed by three washes with wash buffer (PBSF+0.05% Tween 20). SET samples were applied and incubated on the plates for 150 s with shaking at 700 rpm followed by one wash. Antigen captured on a plate was detected with 250 ng/mL sulfotag-labeled streptavidin in PBSF by incubation on the plate for 3 min. The plates were washed three times with wash buffer and then read on the MSD® Sector Imager 2400 instrument using 1× Read Buffer T with surfactant. The percent free antigen was plotted as a function of titrated antibody in Prism and fit to a quadratic equation to extract the KD. To improve throughput, liquid handling robots were used throughout MSD®-SET experiments, including SET sample preparation.

Human PD-L1-Fc = biological target: T9, Human PD-L1-Fc (human, UniProt Q9NZQ7 19-238); assay: ForteBio, Fab, monovalent
T9 construct: also called dimeric PD-L1; PD-L1 (dimeric ligand); not shown: human IgG1 Fc constant region
T9 sequence (Q9NZQ7 19-238 limits assumed): as the sequence (G7PSE7 entry or part of it limits assumed) above, with T33A, S34A, N62S, Q68R, R82Q, L173F, A185T, I192T, L215H counted along it
Experimental: as §1

Human PD-L2-Fc [8] = biological target: T4, Human PD-L2-Fc; assay: ForteBio, Fab, monovalent
Experimental: as §1

Cyno PD-L1-Fc [9] = biological target: T6, Cyno PD-L1-Fc; assay: ForteBio, IgG, avid; remark: listed apart in the source
Cyno PD-L2-Fc [10] = biological target: T1, Cyno PD-L2-Fc; assay: ForteBio, IgG, avid; remark: listed apart in the source
Mouse PD-L1-Fc [11] = biological target: T7, Mouse PD-L1-Fc; assay: ForteBio, IgG, avid; remark: listed apart in the source
Mouse PD-L2-Fc [12] = biological target: T2, Mouse PD-L2-Fc; assay: ForteBio, IgG, avid; remark: listed apart in the source
Human PD-L1-HIS [13] = biological target: T8, Human PD-L1-HIS; assay: ForteBio, IgG, monovalent; remark: listed apart in the source
Human PD-L2-HIS [14] = biological target: T3, Human PD-L2-HIS; assay: ForteBio, IgG, monovalent; remark: listed apart in the source

Binder	Kd (Cyno PD-L1-Fc [1]) [nM]	Kd (Cyno PD-L2-Fc [2]) [nM]	Kd (Mouse PD-L1-Fc [3]) [nM]	Kd (Mouse PD-L2-Fc [4]) [nM]	Kd (Human PD-L1-HIS [5]) [nM]	Kd (Human PD-L2-HIS [6]) [nM]	also measured
B1	0.431	0.677	31.6	0.484	17.8	0.844	
B2							Kd (Human PD-L2-Fc [7]): 16 nM
B3	0.396	0.605	2.65	0.553	13.4	0.868	
B4	0.455	0.603	42	0.552	30.2	1.45	
B5							Kd (Human b-PD-L2-His): 0.15 nM; Kd (Human PD-L1-Fc): 6 nM; Kd (Human PD-L2-Fc [8]): 0.437 nM
B6							Kd (Human b-PD-L2-His): 0.12 nM; Kd (Human PD-L1-Fc): 6.57 nM; Kd (Human PD-L2-Fc [8]): 0.475 nM
B7							Kd (Cyno PD-L1-Fc [9]): 0.838 nM; Kd (Cyno PD-L2-Fc [10]): 0.458 nM; Kd (Mouse PD-L1-Fc [11]): 0.677 nM; Kd (Mouse PD-L2-Fc [12]): 6.77 nM; Kd (Human PD-L1-HIS [13]): 7.24 nM; Kd (Human PD-L2-HIS [14]): 0.497 nM
